Experiment [1] concerns the target T1, PABPC1 RRM1/2/3/4 (residues 1-370) (human, UniProt P11940 1-370). In words: NMR; RRM1/2/3/4 bound to A24 RNA; T438 signal.
Experiment [2] has as its target T1, PABPC1 RRM1/2/3/4 (residues 1-370). In words: NMR; RRM1/2/3/4 bound to A24 RNA; W437 signal.

T1 sequence (P11940 1-370): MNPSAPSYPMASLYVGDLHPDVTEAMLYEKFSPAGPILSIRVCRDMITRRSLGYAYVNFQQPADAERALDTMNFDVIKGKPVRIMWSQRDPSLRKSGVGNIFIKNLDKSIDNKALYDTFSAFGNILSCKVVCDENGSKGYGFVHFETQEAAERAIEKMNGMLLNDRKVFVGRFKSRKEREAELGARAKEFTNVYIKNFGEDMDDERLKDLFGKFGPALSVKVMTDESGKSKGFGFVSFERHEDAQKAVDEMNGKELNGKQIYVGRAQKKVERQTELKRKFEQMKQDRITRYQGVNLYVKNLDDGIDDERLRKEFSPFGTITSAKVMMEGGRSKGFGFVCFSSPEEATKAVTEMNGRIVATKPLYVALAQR

For orientation: Kd means the concentration at which binding is half-saturated. A low value points to higher affinity. With AYYPPSQIAQLRPSPRWTAQGARPHPFQNMPGAIRPAAPRPPFSTMRPAS [PABPC1 linker fragment Lt2 (residues 421-470)], the Kd in experiment [1] is 24 µM; in experiment [2], 12 µM.

These data come from publication PMC5780489 (2018).
